According to article PMC10690100 (Molecular Cancer Therapeutics, 2023):

B1: SGN-B6A (h2A2 conjugated to the vedotin drug-linker) (antibody, V domains shown)
VH: QFQLVQSGAEVKKPGASVKVSCKASGYSFTDYNVNWVRQAPGQGLEWIGVINPKYGTTRYNQKFKGRATLTVDKSTSTAYMELSSLRSEDTAVYYCTRGLNAWDYWGQGTLVTVSS
VL: DIQMTQSPSSLSASVGDRVTITCGASENIYGALNWYQQKPGKAPKLLIYGATNLEDGVPSRFSGSGSGRDYTFTISSLQPEDIATYYCQNVLTTPYTFGQGTKLEIK
B2: h2A2 (humanized 2A2 anti-integrin beta-6 antibody) (antibody, V domains shown)
VH: QFQLVQSGAEVKKPGASVKVSCKASGYSFTDYNVNWVRQAPGQGLEWIGVINPKYGTTRYNQKFKGRATLTVDKSTSTAYMELSSLRSEDTAVYYCTRGLNAWDYWGQGTLVTVSS
VL: DIQMTQSPSSLSASVGDRVTITCGASENIYGALNWYQQKPGKAPKLLIYGATNLEDGVPSRFSGSGSGRDYTFTISSLQPEDIATYYCQNVLTTPYTFGQGTKLEIK

Legend:
[1] = biological target: recombinant human integrin alpha-v/beta-6 (Homo sapiens, UniProt P06756;P18564); test: ELISA
[2] = biological target: recombinant human integrin alpha-v/beta-1 (Homo sapiens, UniProt P06756;P05556); test: ELISA
[3] = biological target: recombinant human integrin alpha-v/beta-3 (Homo sapiens, UniProt P06756;P05106); test: ELISA
[4] = biological target: recombinant human integrin alpha-v/beta-5 (Homo sapiens, UniProt P06756;P18084); test: ELISA
[5] = biological target: recombinant human integrin alpha-v/beta-8 (Homo sapiens, UniProt P06756;P26012); test: ELISA
[6] = biological target: human integrin beta-6 on 293F:hu beta-6 transfected cells (Homo sapiens, UniProt P06756;P18564); test: flow cytometry on cells

recombinant human integrin alpha-v/beta-6, sequence (P06756 31-1048, chain 1 of 2): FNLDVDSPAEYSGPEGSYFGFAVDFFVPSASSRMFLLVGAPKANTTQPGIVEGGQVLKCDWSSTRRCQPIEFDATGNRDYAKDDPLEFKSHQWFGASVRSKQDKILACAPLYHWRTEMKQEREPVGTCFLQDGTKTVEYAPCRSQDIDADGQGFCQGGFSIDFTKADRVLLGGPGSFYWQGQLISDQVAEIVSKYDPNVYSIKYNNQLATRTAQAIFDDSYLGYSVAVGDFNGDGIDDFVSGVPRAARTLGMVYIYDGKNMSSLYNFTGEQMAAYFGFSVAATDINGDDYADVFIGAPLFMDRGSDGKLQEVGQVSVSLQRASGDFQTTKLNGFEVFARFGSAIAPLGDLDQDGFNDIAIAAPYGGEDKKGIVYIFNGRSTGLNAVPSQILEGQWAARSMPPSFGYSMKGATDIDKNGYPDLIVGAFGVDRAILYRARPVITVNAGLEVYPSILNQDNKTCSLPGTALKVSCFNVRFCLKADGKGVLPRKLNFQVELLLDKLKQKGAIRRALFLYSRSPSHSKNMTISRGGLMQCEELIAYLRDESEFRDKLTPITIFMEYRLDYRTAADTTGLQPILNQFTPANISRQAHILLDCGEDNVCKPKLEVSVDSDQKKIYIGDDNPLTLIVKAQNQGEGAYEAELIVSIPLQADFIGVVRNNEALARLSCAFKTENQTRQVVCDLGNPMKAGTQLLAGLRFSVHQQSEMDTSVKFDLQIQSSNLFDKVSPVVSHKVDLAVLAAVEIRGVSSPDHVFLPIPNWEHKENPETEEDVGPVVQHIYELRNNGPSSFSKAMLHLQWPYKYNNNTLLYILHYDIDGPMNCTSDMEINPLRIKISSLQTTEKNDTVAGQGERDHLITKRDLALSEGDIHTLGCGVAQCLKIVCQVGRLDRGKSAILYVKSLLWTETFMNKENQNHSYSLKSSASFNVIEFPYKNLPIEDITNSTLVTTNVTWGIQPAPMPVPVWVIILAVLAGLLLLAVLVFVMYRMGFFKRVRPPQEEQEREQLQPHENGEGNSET
recombinant human integrin alpha-v/beta-6, sequence (P18564 22-709, chain 2 of 2): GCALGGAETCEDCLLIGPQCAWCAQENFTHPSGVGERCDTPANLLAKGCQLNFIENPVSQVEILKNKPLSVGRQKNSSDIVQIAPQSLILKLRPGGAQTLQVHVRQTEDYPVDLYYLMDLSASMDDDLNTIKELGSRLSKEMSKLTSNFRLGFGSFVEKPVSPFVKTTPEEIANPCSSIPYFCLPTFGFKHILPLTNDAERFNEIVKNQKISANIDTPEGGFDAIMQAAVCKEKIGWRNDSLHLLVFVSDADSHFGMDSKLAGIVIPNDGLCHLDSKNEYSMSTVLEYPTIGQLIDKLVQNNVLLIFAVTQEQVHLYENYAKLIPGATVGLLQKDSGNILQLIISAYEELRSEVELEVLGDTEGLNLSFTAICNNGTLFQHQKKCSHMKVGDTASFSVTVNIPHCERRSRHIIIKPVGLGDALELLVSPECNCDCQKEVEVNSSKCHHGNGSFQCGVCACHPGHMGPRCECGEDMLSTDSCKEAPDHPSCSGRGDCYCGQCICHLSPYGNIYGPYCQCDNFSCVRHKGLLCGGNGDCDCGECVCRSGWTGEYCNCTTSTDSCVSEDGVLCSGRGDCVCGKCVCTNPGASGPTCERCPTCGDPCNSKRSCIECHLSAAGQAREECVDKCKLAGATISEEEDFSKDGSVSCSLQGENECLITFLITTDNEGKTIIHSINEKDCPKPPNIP
recombinant human integrin alpha-v/beta-8, sequence (P06756 31-1048, chain 1 of 2): as the sequence (P06756 31-1048, chain 1 of 2) above
recombinant human integrin alpha-v/beta-8, sequence (P26012 43-684, chain 2 of 2): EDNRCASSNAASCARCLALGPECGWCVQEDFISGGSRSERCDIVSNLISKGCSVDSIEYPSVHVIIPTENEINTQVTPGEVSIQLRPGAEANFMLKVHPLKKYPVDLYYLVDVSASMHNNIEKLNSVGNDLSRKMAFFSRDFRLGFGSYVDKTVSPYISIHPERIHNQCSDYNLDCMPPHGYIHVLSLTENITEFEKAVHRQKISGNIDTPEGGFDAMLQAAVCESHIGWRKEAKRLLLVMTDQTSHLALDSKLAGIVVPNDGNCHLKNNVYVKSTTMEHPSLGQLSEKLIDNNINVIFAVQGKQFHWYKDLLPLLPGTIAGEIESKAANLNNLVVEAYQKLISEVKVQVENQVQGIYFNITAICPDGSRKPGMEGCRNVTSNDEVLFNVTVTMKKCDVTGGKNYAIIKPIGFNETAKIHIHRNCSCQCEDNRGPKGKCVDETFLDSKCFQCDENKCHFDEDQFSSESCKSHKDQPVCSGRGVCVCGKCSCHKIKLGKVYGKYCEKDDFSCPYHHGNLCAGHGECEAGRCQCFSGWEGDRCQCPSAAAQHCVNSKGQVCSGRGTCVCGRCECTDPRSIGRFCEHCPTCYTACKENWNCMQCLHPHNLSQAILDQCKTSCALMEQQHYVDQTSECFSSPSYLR
recombinant human integrin alpha-v/beta-1, sequence (P06756 31-1048, chain 1 of 2): as the sequence (P06756 31-1048, chain 1 of 2) above
recombinant human integrin alpha-v/beta-1, sequence (P05556 21-728, chain 2 of 2): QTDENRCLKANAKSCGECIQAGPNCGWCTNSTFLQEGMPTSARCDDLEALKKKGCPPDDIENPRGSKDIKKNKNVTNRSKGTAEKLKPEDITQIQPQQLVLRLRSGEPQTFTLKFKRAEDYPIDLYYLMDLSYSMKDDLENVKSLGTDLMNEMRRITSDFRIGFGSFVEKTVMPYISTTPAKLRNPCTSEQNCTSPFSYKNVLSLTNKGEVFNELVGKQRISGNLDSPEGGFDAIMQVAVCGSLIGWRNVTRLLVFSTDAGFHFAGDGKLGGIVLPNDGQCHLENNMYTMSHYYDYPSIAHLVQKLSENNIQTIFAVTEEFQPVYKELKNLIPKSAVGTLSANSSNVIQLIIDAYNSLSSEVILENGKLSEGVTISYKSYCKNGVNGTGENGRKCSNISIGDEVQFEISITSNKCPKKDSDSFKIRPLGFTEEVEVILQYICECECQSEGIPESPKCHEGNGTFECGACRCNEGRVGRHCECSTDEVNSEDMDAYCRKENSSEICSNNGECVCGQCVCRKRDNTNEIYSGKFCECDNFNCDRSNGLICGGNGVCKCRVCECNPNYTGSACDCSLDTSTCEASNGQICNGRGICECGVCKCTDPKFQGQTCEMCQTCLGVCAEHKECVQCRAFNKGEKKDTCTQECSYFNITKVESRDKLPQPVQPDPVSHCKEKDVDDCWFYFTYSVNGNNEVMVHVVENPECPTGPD
recombinant human integrin alpha-v/beta-3, sequence (P06756 31-1048, chain 1 of 2): as the sequence (P06756 31-1048, chain 1 of 2) above
recombinant human integrin alpha-v/beta-3, sequence (P05106 27-718, chain 2 of 2): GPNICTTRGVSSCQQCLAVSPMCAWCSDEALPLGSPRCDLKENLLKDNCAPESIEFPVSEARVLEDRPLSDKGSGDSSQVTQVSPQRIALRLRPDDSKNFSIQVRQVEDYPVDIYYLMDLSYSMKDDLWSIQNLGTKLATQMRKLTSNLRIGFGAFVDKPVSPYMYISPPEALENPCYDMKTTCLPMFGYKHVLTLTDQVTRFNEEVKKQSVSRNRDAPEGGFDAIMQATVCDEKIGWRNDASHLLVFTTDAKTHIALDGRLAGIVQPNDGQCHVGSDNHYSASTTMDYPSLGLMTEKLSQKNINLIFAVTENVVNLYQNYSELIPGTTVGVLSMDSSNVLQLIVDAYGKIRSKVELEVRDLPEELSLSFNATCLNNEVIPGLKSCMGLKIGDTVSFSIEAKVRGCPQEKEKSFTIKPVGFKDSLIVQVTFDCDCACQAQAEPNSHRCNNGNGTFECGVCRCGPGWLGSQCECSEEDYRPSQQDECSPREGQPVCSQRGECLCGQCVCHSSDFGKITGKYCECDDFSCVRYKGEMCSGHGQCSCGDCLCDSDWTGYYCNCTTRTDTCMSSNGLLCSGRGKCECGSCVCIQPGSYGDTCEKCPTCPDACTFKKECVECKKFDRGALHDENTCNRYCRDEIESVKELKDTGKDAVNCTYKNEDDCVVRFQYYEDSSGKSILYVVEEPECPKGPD
recombinant human integrin alpha-v/beta-5, sequence (P06756 31-1048, chain 1 of 2): as the sequence (P06756 31-1048, chain 1 of 2) above
recombinant human integrin alpha-v/beta-5, sequence (P18084 24-719, chain 2 of 2): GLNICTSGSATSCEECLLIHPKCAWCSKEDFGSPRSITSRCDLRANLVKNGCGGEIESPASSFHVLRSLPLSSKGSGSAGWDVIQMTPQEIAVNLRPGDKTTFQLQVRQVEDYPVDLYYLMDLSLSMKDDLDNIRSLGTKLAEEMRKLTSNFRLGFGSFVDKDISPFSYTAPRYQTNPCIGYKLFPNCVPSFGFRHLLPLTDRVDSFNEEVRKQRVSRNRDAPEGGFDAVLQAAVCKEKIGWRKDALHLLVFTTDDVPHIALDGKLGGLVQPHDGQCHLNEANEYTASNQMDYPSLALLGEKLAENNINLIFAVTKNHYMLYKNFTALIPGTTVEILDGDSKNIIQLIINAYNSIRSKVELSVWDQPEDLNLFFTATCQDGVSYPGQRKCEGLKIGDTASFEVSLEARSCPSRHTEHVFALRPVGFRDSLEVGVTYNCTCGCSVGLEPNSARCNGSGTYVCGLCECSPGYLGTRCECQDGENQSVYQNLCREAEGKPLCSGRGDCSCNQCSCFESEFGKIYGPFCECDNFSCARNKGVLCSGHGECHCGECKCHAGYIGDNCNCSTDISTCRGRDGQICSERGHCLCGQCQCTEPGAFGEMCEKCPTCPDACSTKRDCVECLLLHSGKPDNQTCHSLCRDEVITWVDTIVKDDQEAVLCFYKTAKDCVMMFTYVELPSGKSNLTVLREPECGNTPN

Binder | EC50 [1] | binding result [2] | binding result [3] | binding result [4] | binding result [5] | EC50 [6]
B1 | 0.9 nM | no binding | no binding | no binding | no binding | –
B2 | 0.7 nM | no binding | no binding | no binding | no binding | 0.3 nM
